Patent publication US20170267737A1 (published 2017)

Biological target: T1, glypican-3 (GPC3) peptide on HLA-A*02:01 (human)
T1 peptide: FIDKKVLKV
Test: multimer staining

binding result: recognises
B1: TCR P1-1 (TCR, V domains shown)
Valpha: AQSVTQPDIHITVSEGASLELRCNYSYGATPYLFWYVQSPGQGLQLLLKYFSGDTLVQGIKGFEAEFKRSQSSFNLRKPSVHWSDAAEYFCAVGVLNFGNEKLTFGTGTRLTIIP
Vbeta: SQTIHQWPATLVQPVGSPLSLECTVEGTSNPNLYWYRQAAGRGLQLLFYSVGIGQISSEVPQNLSASRPQDRQFILSSKKLLLSDSGFYLCAWSEDTAYYGYTFGSGTRLTVV
